Two molecules from article PMC3082181 (The Journal of Cell Biology, 2011) can be followed below.

Holding throughout (assay): co-IP
In test [1] the target is T1, Flag-Munc18c-Y219F (mouse, UniProt Q60770 1-592, Y219F).
T1 sequence: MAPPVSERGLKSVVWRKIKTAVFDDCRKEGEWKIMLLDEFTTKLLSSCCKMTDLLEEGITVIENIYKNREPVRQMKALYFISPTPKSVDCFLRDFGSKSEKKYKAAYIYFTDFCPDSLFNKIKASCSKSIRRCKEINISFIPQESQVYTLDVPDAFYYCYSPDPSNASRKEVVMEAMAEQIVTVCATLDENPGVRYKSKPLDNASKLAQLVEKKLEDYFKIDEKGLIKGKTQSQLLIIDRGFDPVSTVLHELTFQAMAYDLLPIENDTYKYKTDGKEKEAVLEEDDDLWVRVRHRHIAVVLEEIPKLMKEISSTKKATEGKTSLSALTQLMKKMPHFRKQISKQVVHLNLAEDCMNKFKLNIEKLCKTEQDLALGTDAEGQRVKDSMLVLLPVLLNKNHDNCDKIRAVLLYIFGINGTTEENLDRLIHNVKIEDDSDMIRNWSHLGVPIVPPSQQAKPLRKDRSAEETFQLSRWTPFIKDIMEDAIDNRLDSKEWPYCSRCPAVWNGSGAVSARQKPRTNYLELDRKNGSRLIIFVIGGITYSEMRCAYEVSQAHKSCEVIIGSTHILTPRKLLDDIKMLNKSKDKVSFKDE

The target of test [2] is T2, Flag-Munc18c-Y521F (mouse, UniProt Q60770 1-592, Y521F).
T2 sequence: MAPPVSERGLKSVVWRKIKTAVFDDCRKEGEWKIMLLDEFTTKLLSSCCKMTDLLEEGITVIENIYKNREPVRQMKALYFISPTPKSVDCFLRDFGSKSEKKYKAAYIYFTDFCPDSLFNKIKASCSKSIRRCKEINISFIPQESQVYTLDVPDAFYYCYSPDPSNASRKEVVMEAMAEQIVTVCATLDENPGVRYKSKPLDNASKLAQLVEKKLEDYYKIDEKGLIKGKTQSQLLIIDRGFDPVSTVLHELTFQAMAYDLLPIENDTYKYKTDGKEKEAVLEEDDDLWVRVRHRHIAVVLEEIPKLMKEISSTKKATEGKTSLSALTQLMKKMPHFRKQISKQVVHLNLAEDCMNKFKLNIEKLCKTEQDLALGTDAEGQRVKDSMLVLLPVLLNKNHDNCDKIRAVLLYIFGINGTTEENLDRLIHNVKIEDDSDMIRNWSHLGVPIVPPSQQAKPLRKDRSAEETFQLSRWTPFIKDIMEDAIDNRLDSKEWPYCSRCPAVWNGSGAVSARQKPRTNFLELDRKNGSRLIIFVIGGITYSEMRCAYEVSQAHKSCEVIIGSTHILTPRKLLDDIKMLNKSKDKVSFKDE

Test [3] addresses T3, Munc18c (mouse (endogenous in 3T3-L1 adipocytes …, UniProt Q60770 1-592)).
T3 sequence: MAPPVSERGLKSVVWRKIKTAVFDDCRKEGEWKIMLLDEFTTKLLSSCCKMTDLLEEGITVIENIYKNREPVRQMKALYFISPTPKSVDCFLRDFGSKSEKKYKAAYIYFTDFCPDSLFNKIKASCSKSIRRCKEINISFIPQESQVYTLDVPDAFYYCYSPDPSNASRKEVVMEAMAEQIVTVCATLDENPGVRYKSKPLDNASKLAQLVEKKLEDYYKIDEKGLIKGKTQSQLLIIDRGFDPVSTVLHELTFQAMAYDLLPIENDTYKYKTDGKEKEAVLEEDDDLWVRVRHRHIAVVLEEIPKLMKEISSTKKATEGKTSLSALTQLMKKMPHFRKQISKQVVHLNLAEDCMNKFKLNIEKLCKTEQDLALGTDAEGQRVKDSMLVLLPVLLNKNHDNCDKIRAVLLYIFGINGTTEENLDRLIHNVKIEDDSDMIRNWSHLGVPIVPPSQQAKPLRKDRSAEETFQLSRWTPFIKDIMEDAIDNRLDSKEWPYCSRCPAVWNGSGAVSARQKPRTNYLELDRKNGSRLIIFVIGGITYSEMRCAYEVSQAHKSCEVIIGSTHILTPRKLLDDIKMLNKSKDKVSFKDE

B1: full-length syntaxin 4 (natural protein)
chain: MRDRTHELRQGDNISDDEDEVRVALVVHSGAARLSSPDDEFFQKVQTIRQTMAKLESKVRELEKQQVTILATPLPEESMKQGLQNLREEIKQLGREVRAQLKAIEPQKEEADENYNSVNTRMKKTQHGVLSQQFVELINKCNSMQSEYREKNVERIRRQLKITNAGMVSDEELEQMLDSGQSEVFVSNILKDTQVTRQALNEISARHSEIQQLERSIRELHEIFTFLATEVEMQGEMINRIEKNILSSADYVERGQEHVKIALENQKKARKKKVMIAICVSVTVLILAVIIGITITVG
As to B1, the “ratio syntaxin 4/Flag-Munc18c, insulin-stimulated versus basal = 1” value came to 1 in test [1] and 1.6 in test [2].

B2: insulin receptor (receptor)
chain 1: HLYPGEVCPGMDIRNNLTRLHELENCSVIEGHLQILLMFKTRPEDFRDLSFPKLIMITDYLLLFRVYGLESLKDLFPNLTVIRGSRLFFNYALVIFEMVHLKELGLYNLMNITRGSVRIEKNNELCYLATIDWSRILDSVEDNYIVLNKDDNEECGDVCPGTAKGKTNCPATVINGQFVERCWTHSHCQKVCPTICKSHGCTAEGLCCHKECLGNCSEPDDPTKCVACRNFYLDGQCVETCPPPYYHFQDWRCVNFSFCQDLHFKCRNSRKPGCHQYVIHNNKCIPECPSGYTMNSSNLMCTPCLGPCPKVCQILEGEKTIDSVTSAQELRGCTVINGSLIINIRGGNNLAAELEANLGLIEEISGFLKIRRSYALVSLSFFRKLHLIRGETLEIGNYSFYALDNQNLRQLWDWSKHNLTITQGKLFFHYNPKLCLSEIHKMEEVSGTKGRQERNDIALKTNGDQASCENELLKFSFIRTSFDKILLRWEPYWPPDFRDLLGFMLFYKEAPYQNVTEFDGQDACGSNSWTVVDIDPPQRSNDPKSQTPSHPGWLMRGLKPWTQYAIFVKTLVTFSDERRTYGAKSDIIYVQTDATNPSVPLDPISVSNSSSQIILKWKPPSDPNGNITHYLVYWERQAEDSELFELDYCLKGLKLPSRTWSPPFESDDSQKHNQSEYDDSASECCSCPKTDSQILKELEESSFRKTFEDYLHNVVFVPRPS
chain 2: SLEEVGNVTATTLTLPDFPNVSSTIVPTSQEEHRPFEKVVNKESLVISGLRHFTGYRIELQACNQDSPDERCSVAAYVSARTMPEAKADDIVGPVTHEIFENNVVHLMWQEPKEPNGLIVLYEVSYRRYGDEELHLCVSRKHFALERGCRLRGLSPGNYSVRVRATSLAGNGSWTEPTYFYVTDYLDVPSNIAKIIIGPLIFVFLFSVVIGSIYLFLRKRQPDGPMGPLYASSNPEYLSASDVFPSSVYVPDEWEVPREKITLLRELGQGSFGMVYEGNAKDIIKGEAETRVAVKTVNESASLRERIEFLNEASVMKGFTCHHVVRLLGVVSKGQPTLVVMELMAHGDLKSHLRSLRPDAENNPGRPPPTLQEMIQMTAEIADGMAYLNAKKFVHRDLAARNCMVAHDFTVKIGDFGMTRDIYETDYYRKGGKGLLPVRWMSPESLKDGVFTASSDMWSFGVVLWEITSLAEQPYQGLSNEQVLKFVMDGGYLDPPDNCPERLTDLMRMCWQFNPKMRPTFLEIVNLLKDDLHPSFPEVSFFYSEENKAPESEELEMEFEDMENVPLDRSSHCQREEAGGREGGSSLSIKRTYDEHIPYTHMNGGKKNGRVLTLPRSNPS
Turning to B2, the “fold change of coprecipitated IR, insulin versus unstimulated” value in test [3] is approximately 2 fold.
